Measurements published in US20140088019A1.
Bridges are numbered along the chain shown (N, C = ends). Where no end group is shown, it is not given here.

Target: recombinant human angiopoietin-2 (human) (UniProt O15123)
Experiment: direct ELISA, rhAng2 coated on microplate wells, detection by HRP-anti-His tag antibody, OD450

Chain of UniProt O15123 (O15123 19-496 limits assumed): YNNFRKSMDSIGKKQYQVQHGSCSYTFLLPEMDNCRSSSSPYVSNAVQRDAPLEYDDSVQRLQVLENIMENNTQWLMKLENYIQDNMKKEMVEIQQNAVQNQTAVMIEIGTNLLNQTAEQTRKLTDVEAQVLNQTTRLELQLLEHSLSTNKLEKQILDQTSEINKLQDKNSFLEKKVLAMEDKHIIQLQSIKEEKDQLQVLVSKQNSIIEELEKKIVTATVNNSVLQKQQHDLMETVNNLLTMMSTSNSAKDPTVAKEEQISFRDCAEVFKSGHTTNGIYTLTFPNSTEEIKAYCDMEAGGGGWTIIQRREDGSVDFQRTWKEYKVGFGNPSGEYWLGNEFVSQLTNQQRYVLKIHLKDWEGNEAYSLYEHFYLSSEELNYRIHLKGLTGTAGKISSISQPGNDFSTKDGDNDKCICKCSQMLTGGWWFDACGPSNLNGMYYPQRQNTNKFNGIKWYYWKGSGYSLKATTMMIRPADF

B1: Construct 12: ELP-MRD fusion protein with a constrained rhAng2-targeting peptide (ANGd) sandwiched between ELP repeat modules (designed binder, not shown: small tags and cut ends)
chain: LWDDCYSFPNPPHCYNSP
modifications: disulfide 5-14 (inferred); not fully specified (N-terminus, C-terminus); also: peptide sandwiched between ELP repeat modules, ELP composition not given here
Question: Which EC50 (read off the curve) does the source give for B1 here?
Answer: The EC50 (read off the curve) was 8 nM.
